{"source": "the DeepSol protein solubility set"}
{"assay": "soluble on expression in E. coli; label from the status in PepcDB or PDB records"}
{"sequence": "MGSDKIHHHHHHMTITAMLNPVWIQTFATVAAARSFTEAGRQLGLSQSSVSDHIRRLEQSVGRRLFVRDTHSLSMTPDGEALLVHARLILEALARAESQFTAPRLRGRVRLGTSEDLAQGPLSGVLSAFRNTHPDVEMEITIAMTSKLYELMDAGSLDLMLGKRRQGDRRGVPLFRGSLEWLARPGTVVDLSQPLPLILVHEPSVTRSVVLDTLAKAGCQWQVVCSSSSHSGCLAAARGGLGLTVRSRYLYGEGVAPPLNWEKLPALPEVEFISLSARRLSQPAETLLRLLQKSDLRAASSWTSA", "soluble on expression in E. coli": "not soluble"}
{"sequence": "MGHHHHHHSHVAQFPTPFGGSLDTWAITVEERAKHDQQFHSLKPISGFITGDQARNFFFQSGLPQPVLAQIWALADMNNDGRMDQVEFSIAMKLIKLKLQGYQLPSALPPVMKQQPVAISS", "soluble on expression in E. coli": "soluble"}
{"sequence": "MTDGSMDIDAMLEGGLEMAKNDRSQSRQRSPARSNRSRPSRVPIQSDVD", "soluble on expression in E. coli": "not soluble"}
{"sequence": "MGSDKIHHHHHHMKWNWQQPDWPDFRWNSEALAVHEARFLQQSGIMIGVVKHLGDEDRTSVVLDVMTDEAMKTSQIEGELLNRDSVQSSLRREFGLETEARRIPPAERGIAEMMMALFRDFAAPLTEEVLGDWHRLVLSGRSDIDVVGRYREHEDAMQVVSGALHKPTVHFEAPPSREMAAEMARFLEWFAATGPGGATPLPGLTRSGLAHLYFVTIHPFEDGNGRIGRAIAEKALSQAIGQPSLIALSQTIQRRRSAYYDALEAANKSNEISDWLAYWAETVLDAQTHSLALIDFLLEKTRFHDRYRGKLNPRQEKVIARMFREGLDGFKGGLSAANYITIADTSRATATRDLQELVALGAMGQTGTLKATRYHLILDAVAGTNPPVNQA", "soluble on expression in E. coli": "not soluble"}
{"sequence": "MGASSSSSVSEKSIHQFTVKDSSGKEVDLSVYQGKVLLVVNVASKCGFTESNYTQLTELYRKYKDQGFVVLAFPCNQFLSQEPGTSEEAHQFACTRFKAEYPVFQKVRVNGQNAAPVYKFLKSKKPSFLGSRIKWNFTKFLVGKDGQVIDRYGTTVSPLSIQKDIEKALAQEL", "soluble on expression in E. coli": "soluble"}
{"sequence": "MGSDKIHHHHHHMIERIYLAKPRGFCAGVVMAIQAVEKAAVREDKPVTVYHSIVHNHTVVERLSEGGRVHFVEDLDAVDALPDSGDTVIFSAHGISPAVRERARSLGLSTIDATCPLVTKVHTEAKKYAREGYTILLIGDSAGHQEVIGTRGEAPENTILVGVLGKTGPGLNDPHAVQVPDPERLVVLTQTTLSVDDTRKTVDILKARFPALVVPPSEDLCYATKNRQDAVKNIAPNVDAFLVLTSTHSSNGMRLLELAEAECGRAYRLETAADLTRLEQNGDLGGVRSVGITSAASTPDDLVQDVVAHFRALNPALEVIEEGEWENIEFREPKKIAPTQELPRTMQ", "soluble on expression in E. coli": "not soluble"}
{"sequence": "MSLKTVVVSGASVAGTAAAYWLGRHGYSVTMVERHPGLRPGGQAIDVRGPALDVLERMGLLAAAQEHKTRIRGASFVDRDGNELFRDTESTPTGGPVNSPDIELLRDDLVELLYGATQPSVEYLFDDSISTLQDDGDSVRVTFERAAAREFDLVIGADGLHSNVRRLVFGPEEQFVKRLGTHAAIFTVPNFLELDYWQTWHYGDSTMAGVYSARNNTEARAALAFMDTELRIDYRDTEAQFAELQRRMAEDGWVRAQLLHYMRSAPDFYFDEMSQILMDRWSRGRVALVGDAGYCCSPLSGQGTSVALLGAYILAGELKAAGDDYQLGFANYHAEFHGFVERNQWLVSDNIPGGAPIPQEEFERIVHSITIKDYEGHHHHHH", "soluble on expression in E. coli": "not soluble"}
{"sequence": "MGSDKIHHHHHHMDTKAFKRALHQSDRYNRKGFGKTTDVSGALESAYQSDLIQSLRQNGYRLQRGEITIRLAEAFGFCWGVERAVAIAYETRQHFPQERIWITNEIIHNPSVNQHLREMSVEFIPCERGEKDFSVVDRGDVVILPAFGASVQEMQLLDEKGCHIVDTTCPWVSKVWNTVEKHKRGAHTSIIHGKYNHEETVATSSFAETYLVVLNLEQAQYVCDYILNGGDRDEFMTRFGKACSAGFDPDRDLERIGIANQTTMLKSETEAIGKLFERTLLKKYGPQALNDHFLAFNTICDATQERQDAMFQLVEEPLDLIVVIGGFNSSNTTHLQEIAIERQIPSFHIDAAERIGPGNRIEHKPLHTDLTTTEPWLPAGPLTIGITSGASTPDKVVEDVIERLFDLQRS", "soluble on expression in E. coli": "not soluble"}
{"sequence": "EGSARFMPELTARAGFAFIPSIAIIKNKVFEPDDPQELEAYQSVLGYTPGIRGNLKVSSFSGHMLADYHPFKNAFRVTAGLYFNRPQINAKVQLINQNTGQSIMNDQSTLNPNNMPVITIKDKDNPADKVSIQPSSTAEVEASVHLGRTVQPYIGIGYGFAVPVSRVSFFADLGMLFSGKAQISSPNVIAGDPNLLIDFSEDAQEAVYSTQILPVLNIGVSIRLF", "soluble on expression in E. coli": "not soluble"}
{"sequence": "MNPVEPADLVDIREQLHSGCHIVQAKGFSFLANRIINKELDAKDEKKYRKLLFDCFVVEEDILFRFLIDTLPILLIRGSNSPETLWEEFTLRAPRIRRIQRAFGMMISHCKPSFSKFLDVAARIDSEILTKICISSEFGYNFYQYIAVLSFTGLLSDSQKRLVGNCGLAQNVFLKHQPDLYPTGHESEHDPESFLRECSAEDLLSHPLHNIDPFQRHKLMRDRPAVLESKNLPNHILYLPYAVMLSQYKQVIVKLVEQSKMADHKLASENRVSGCRDTYSFAAPDFSDQDLTFETFMYHTIATGKVTSFIKYVENYHESLGILQKAHLLPALTVFLTHSSTNPSLQERICKLIALFVKKAPENADQFVLYFITLYQKPFFPIHRHLLLETIKDLFVNRFVISSAFGFLKITACLEGDRVRSLECLAEIIPKFTQLFEPMTSLCALKRDDGSDESFYAELHLLKECCKVTEDNEKALSKISNSLKECTGPRLAAIVDAVTDLIKCGVLDTIGARSMLTKRARQRGCEQSLGTYCRLLSTSTIPEENEEQARILRMSCIEELANLKQNDNHTVASEAWRSLGAFELDELEKGLKINPAQFATLFVKLRKEVQNGFIDFLSLCLHKEVESYQRPLYNTSAQDVNVSPLLTKVDTFKDKLIIENKNEPWFWSASLSLSASILQLTGPTNRAQASVRLLQSCLENVVPASSHDEMIRLMAGWRICIREVLHVLTESKSNDILWARDQIINTGRTSLTNKAESVDNIMMMLTALADAIDQQLRNIENDEQVEEVSKAQNPWLLSVYEFVATRLPKNLKEKRVAKNEPIYQLITHSNKSSLLTAIFCLRLLYLNPSVAAFYNDEDVGLTDDRMLVSLLQDSTKELKKEEIPDRKMMWVTAEAYGASQMSAKAFEVAYNIVIDEKTEKYEETELVDDESIEKFFNGLISSPKKDLKEIEQNNKKVLEKLWNNGNNEVRRKIYEGLAELALISGTGRSKMVIPAGKLPEGILKGILQLFDKKINVKPETLRNIIRCLVNHRRNDGRFLPPIDWMKFLERSEWTKADTDARLAMITLACEQNISEVIFHFSSSLTVKELLVLSENLRSVSKLFPRKEFTMILVQMAVQARKEDVETSKKLSMALSDLQKDSTVHNFLMKCLPKLFDISGITDPILNSIKDPDAFGGQISNCFDVWLEARRGEKMNIRRICDIFGKEESNSKKNAICALISHESRTLSRKMRFEKLLDVITASRIARTFGGSMQSFFSIFLSIIVSNNDTVEIPLCWFENQEHVPAMMIAAKQPFYKWIVEAPEMKSNAHHFGSFLSYYVDGPEKQYYEYWHTEGATDLLAMIVSAYPNETFPNLLTQTDEFWKSLLGIADVGK", "soluble on expression in E. coli": "not soluble"}
{"sequence": "MNDTSFENCIKCTVCTTACPVSRVNPGYPGPKQAGPDGERLRLKDGALYDEALKYCINCKRCEVACPSDVKIGDIIQRARAKYDTTRPSLRNFVLSHTDLMGSVSTPFAPIVNTATSLKPVRQLLDAALKIDHRRTLPKYSFGTFRRWYRSIAAQQAQYKDQVAFFHGCFVNYNHPQLGKDLIKVLNAMGTGVQLLSKEKCCGVPLIANGFTDKARKQAITNVESIREAVGVKGIPVIATSSTCTFALRDEYPEVLNVDNKGLRDHIELATRWLWRKLDEGKTLPLKPLPLKVVYHTPCHMEKMGWTLYTLELLRNIPGLELTVLDSQCCGIAGTYGFKKENYPTSQAIGAPLFRQIEESGADLVVTDCETCKWQIEMSTSLRCEHPITLLAQALA", "soluble on expression in E. coli": "not soluble"}
{"sequence": "MQSLMNNPVTRSNAPCLIVGIGYTTGSVRDLAQRAADYTPPLGDNATADERRQFGQADRFADFIDSELTAFLESRYTLNRNETAVFGHSFGALFGLYSLLSHRCFRRHWLVSPSIWWHNRRILDFMPSENRLDGIDACLNIGALERSSGCKRREERDMAGQAEQMAAELDRRGTAVFFREYPNADHGNVPFYSLTDCVEYLRE", "soluble on expression in E. coli": "not soluble"}
{"sequence": "MGSDKIHHHHHHMQQLQAAVALHKQGELDKAEAIYQQVLAVDVNNFYALNFCGSIKREKKRFDEGIDFLSRAISLQPDNPDAIYNLGNVFKDSERWDEAISCYEKTLGLRAESPEALNNLGICLKEVERFEYSEIVLRRVVSMQPGLAGAWLNLGNTFKEQEKYSEAKASYRNAIDLKPDFEAAYFALGLVLKEEGKVEEAIASYRKAIELKPDFADVYFALGLVLKEAGEFEAARQIVSALSTVNAMEDSTLLSFSLCDLVFDWYHRRVLNLLEDVEMTALSGASAPFSAYETVRKIQPQLFPPLFLKGEGDRANEKHLYRNGYLVEDEILPEDLCAEFVNGFEGANAMSAALIRAVSEKGVLGSVLGKIFKHTDFPHLVWNCIYFAKGPDDQAISDAWHYDNHYNVWTPKLMIYLNSQREEGGATEFVDTSLSRRLSEETDYMGFIWQRESYADRVKGSVKDLGLDPATLDPDHYTFSPDHAGSGVWFCPSRVLHRGVSPKKGVRHVLSFSLTPLPHDCGWSIDQCVDKSIEILQDKINKGMQKSDVNPYWIPAEAGYA", "soluble on expression in E. coli": "not soluble"}
{"sequence": "MKRVRKAIIPAAGLGTRFLPATKAMPKEMLPIVDKPTIQYIVEEAVKSGIEDIIIVTGKTKRSIEDHFDNAFELEQNLLEKKKYELLEKVQASSKMVDIHYIRQKEPKGLGHAVWCARKFIGDEPFAVLLGDDIVQAEKPCLRQLIEEYDKTLSSVIGVQTVPEDETHRYGIIDPLEQEGRRYQVRNFVEKPAAGTAPSNLAIMGRYVLTPEIFMFLEQQHVGAGGEIQLTDAIQSLNEIQRVFAYDFEGKRYDVGEKLGFVQTTIEMALQHPELRDDMVTMMKKILEEQTNQES", "soluble on expression in E. coli": "not soluble"}
{"sequence": "MTSTPIERAVYIVSDSTGITAETFSHSVLSQFDEVNFKPVRLPFIDTLDKAREVVARINRNALEAGVPPIVFSTLVNPEILALVRQSNGVFLDLFGTFVSHIEQALGLKSSHSIGRSHMAANSEKYRNRIDAINFSLAHDDGQFVNQLDQADVILLGVSRCGKTPTSLYLAMQYAVKAANFPLTPDDFERGALPKTIAPYRGKLFGLSIQPERLAEVRNERRPNSHYARLEQCRYEVAEAERMMRREGISWLSTTTKSIEEIATTVLQEVGLERVAAALEHHHHHH", "soluble on expression in E. coli": "soluble"}
{"sequence": "MAHHHHHHMPLNAQQLLFHLARRNSAPPWRWFPTATENKLFERLDTSGSPTAQVVYSQFVQARLQGSCSAGTAPIQLDLFLDELTPSDDGDYILRCPLANSHLMKRLVVPAPMRIAMHGLLQEVIDVFQQAGIRYWAAGGTLLGAVRHGCIIPWDDDVDLAISVEDELKLRSAFKYPCAHGSDDNIGDNSGDCNSEYSSESSSNEVEKNDGNNGGNLVLEYVPLFGYKVYSRLLPPPFPSPSLPGVGSSCLRYGYFVDIFIMRESKNRFVLARESAQRTWPDEWWHVDELFPLLQKPFAAVAACASEQHPQTALQLSVGRYPLMHLHRLYGETCMQEALIPRELHGRELSHSLRIPLELL", "soluble on expression in E. coli": "not soluble"}
{"sequence": "MGSDKIHHHHHHMSSIYSAPILVFDVNETLLDIDTLTPLFTRLFGDENRLREWFAQLVLYSQTMTLSGLYTPFGELGVGALQMTADIHAVTLTEEDIQEFKQRMSETPAHPDVIPALTKLRDAGFRLVTLTNSAPSTSPTRLEKAGLSEFFEQNFSVDSVRQFKPAPAIYQMVASELSVETSELCLVACHIWDTIGAQAAGCQGAFVTRPYNALLSAPNVPKPDFIASDLITLAEHIINHQSS", "soluble on expression in E. coli": "not soluble"}
